This test has as its target HpiC1. The experiment in a line: crystal structure.

For the substance HpiC1 (enzyme), the stoichiometry N turned out to be 2.

(Values after publication PMC5880276.)
